Measured values taken from EP4218932A2 (GammaDelta Therapeutics Limited, dated 2023).
Residue numbers refer to the chain shown, from its start.

B1: 1139_P01_E04 (antibody, human IgG1, V domains shown)
VH: QVQLQQSGPGLVKPSQTLSLTCAISGDSVSSNSAAWNWIRQSPSRGLEWLGRTYYRSKWYNDYAVSVRSRITINPDTSKNQFSLQLNSVTPEDTAVYYCARSWNDAFDIWGQGTTVTVSS
VL: DIVMTQSPSTLSASIGDRVTITCRAGQSISTWLAWYQQKPGKAPKLLIYDASSLESGVPLRFSGSGSGTDFTLTISSLQPEDFATYYCQQSYSTPLTFGGGTKVEIK
B2: 1245_P01_G09 (antibody, human IgG1, V domains shown)
VH: QVQLQQSGPGLVKPSQTLSLTCAISGDSVSSNSAAWNWIRQSPSRGLEWLGRTYYGSKWYNEYALSVKSRIIINPDTSKNQFSLQLNSVTPEDTAVYYCARDYYYSMDVWGQGTLVTVSS
VL: B1 VL with D70E, T74A, E81D, L96V, G100Q
B3: 1252_P01_C08 (antibody, human IgG1, V domains shown)
VH: EVQLLESGGGLVQPGRSLRLSCAASGFTVSSNYMSWVRQAPGKGLEWVSVIYSGGSTYYADSVKGRFTISRDNSKNTLYLQMNSLRAEDTAVYYCASPIELGAFDIWGQGTLVTVSS
VL: SSYELTQPPSVSVAPGKTARITCGGNNIGSQSVHWYQQKPGQAPMLVIYYDSDRPSGIPERFSGSNSGNTATLTISRVEAGDEADYYCQVWDSSSDHVVFGGGTKLTVL
B4: 1245_P01_G06 (antibody, V domains shown)
VH: QVQLVESGGGLVKPGGSLRLSCAASGFTFSDYYMSWIRQAPGKGLEWVSYISSSGSTIYYADSVKGRFTISRDNAKNSLYLQMNSLRAEDTAVYYCARHSWNDAFDVWGQGTLVTVSS
VL: not shown
B5: 1245_P01_E07 (antibody, human IgG1, V domains shown)
VH: B4 VH with H99V, S100D, W101Y, N102A, V107I
VL: DIQMTQSPSSLSASVGDRVTIACRAGQSIGTYLNWYQQKPGKAPKLLIYVASSLQSGVPSRFSGSGSGTEFTLTISSLQPEDFATYYCQQSYSTLLTFGRGTKVEIK
B6: 1245_P02_G04 (antibody, human IgG1, V domains shown)
VH: QVQLQQSGPGLVKPSQTLSLTCAISGDSVSSKSAAWNWIRQSPSRGLEWLGRTYYRSKWSTDYAASVKSRITINPDTSKNQLSLQLNSVTPEDTAVYYCARTWSGYVDVWGQGTLVTVSS
VL: DIQMTQSPPALSASVGDRVTITCRASQDINDWLAWYQHKPGKAPKLLIYDASSLESGVPSRFSGSGSGTEFTLTISSLQPDDFATYYCQQSYSTPQVTFGQGTRLEIK

biological target: Vδ1 chain of the γδ TCR on Vδ1+ γδ T cells (human); experiment: cell-based or functional assay

Point of comparison: B6, “T cell degranulation (EC50 µg/ml - 3 donors)” value 0.002 µg/mL. Against it:
- B1 — 2.5-fold higher, 0.005 µg/mL
- B2 — 2-fold lower, 0.001 µg/mL
- B4 — 2-fold lower, 0.001 µg/mL

Point of comparison: B5, “Killing assay (EC50 µg/ml - 2 or 3 donors)” value 0.06 µg/mL. Against it:
- B3 — 3-fold lower, 0.02 µg/mL
- B6 — 1.7-fold higher, 0.1 µg/mL
